Measurements reported in PMC8759039, “EjRAV1/2 Delay Flowering Through Transcriptional Repression of EjFTs and EjSOC1s in Loquat”.

B1: EjFT1-P1 (dsDNA)
DNA 1: TGGCAATATGACATGCAATGCAACAGAATATAAATAGTTGATTTTG
DNA 2: CAAAATCAACTATTTATATTCTGTTGCATTGCATGTCATATTGCCA
B2: EjFT1-P1 unlabeled (dsDNA)
DNA 1: B1 DNA 1
DNA 2: B1 DNA 2

Experiments:
EjRAV1 [1] = molecular target: T1, EjRAV1 (Eriobotrya japonica, UniProt A0A482LZ61 1-403); assay: EMSA; Beyotime EMSA/Gel Shift kit, chemiluminescent biotin detection; buffer, salt, pH and temperature not stated; settings: protein: recombinant; tags: 6xHis (pET28a); label: biotin (ends); blunt
T1 sequence (A0A482LZ61 entry or part of it): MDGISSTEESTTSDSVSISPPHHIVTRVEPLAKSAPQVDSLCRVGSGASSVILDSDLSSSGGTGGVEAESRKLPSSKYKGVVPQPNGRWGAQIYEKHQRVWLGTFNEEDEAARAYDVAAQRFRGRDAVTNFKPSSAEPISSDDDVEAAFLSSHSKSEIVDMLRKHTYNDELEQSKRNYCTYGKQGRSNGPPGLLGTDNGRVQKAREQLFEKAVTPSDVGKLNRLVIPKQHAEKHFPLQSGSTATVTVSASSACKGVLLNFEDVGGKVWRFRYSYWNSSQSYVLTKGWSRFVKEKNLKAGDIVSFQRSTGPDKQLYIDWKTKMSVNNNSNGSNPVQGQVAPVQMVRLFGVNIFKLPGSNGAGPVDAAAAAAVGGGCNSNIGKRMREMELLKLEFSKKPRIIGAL

EjRAV2 = EjRAV2 (Eriobotrya japonica, UniProt A0A482LTM5 1-406); assay: as above; settings: protein: recombinant; tags: 6xHis (pET28a); label: biotin (ends); blunt
EjRAV2, sequence (A0A482LTM5 entry or part of it): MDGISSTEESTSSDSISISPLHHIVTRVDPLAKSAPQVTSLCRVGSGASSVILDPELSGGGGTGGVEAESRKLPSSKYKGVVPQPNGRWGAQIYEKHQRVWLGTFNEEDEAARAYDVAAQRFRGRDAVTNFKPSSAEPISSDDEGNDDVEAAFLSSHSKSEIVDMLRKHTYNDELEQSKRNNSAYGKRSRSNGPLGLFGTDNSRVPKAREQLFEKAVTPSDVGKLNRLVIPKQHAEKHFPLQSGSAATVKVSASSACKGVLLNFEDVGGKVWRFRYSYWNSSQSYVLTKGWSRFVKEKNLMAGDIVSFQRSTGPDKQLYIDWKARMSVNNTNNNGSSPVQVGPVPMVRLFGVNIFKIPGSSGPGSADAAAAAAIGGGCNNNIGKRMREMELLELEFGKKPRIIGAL

EjRAV1 [2] = molecular target: T1, EjRAV1; assay: competition; excess unlabeled vs biotin P1; Beyotime EMSA/Gel Shift kit, chemiluminescent biotin detection; buffer, salt, pH and temperature not stated; settings: protein: recombinant; tags: 6xHis (pET28a); blunt

Row | Binder | binding result (EjRAV1 [1]) | binding result (EjRAV2) | binding result (EjRAV1 [2])
1 | B1 | binds | no binding | –
2 | B2 | – | – | binds
